Experimental findings from paper PMC12520357 (2025) are described below.

B1: Reg1-FLAG (wild type) [S. cerevisiae] / Snf1-GFP [S. cerevisiae] (parent complex)
chain 1: MSTNLANYFAGKKDIENEHVNRNASHESNSKSDVKISGNDNDNDEDMGPSVSMAVQAKNDDDFHKSTFNLKRTRSMGLLDEYIDPTKKLLGRSDDLYDNDNEYYDNSSNNSSSNSSDDDYDDGYQEHSTSVSPPPADNDSYLIPQDDNDVVVEPERHVDYLSHEWKESEISNSWKYIILKKKKRDVDLVNAARLENASWRTWAKARNNLKTVSPEVVNWSKDSDVTWLYGPIVRDSEGNAQSEEEHDLERGYGSDDENSKRISMPTKNSKSIAAAPKPILKKRTVTEIIEDNALWKLNEARKHMTEMKHASVIMDPNGNKNVHDDFDALAAQVNAQYYHYPKESNSSVSLKSQHSDKKDNSTIPNPVGENSNGGGDKGEEDLHLKSALHVQNNRSTAQSNKSILENSTNDRKANLDQNLNSPDNNRFPSSTSSSNRDNENNSMGLSSILTSNPSEKSNKPTKNRHIHFNDRVEQCMALRYPASQSEDDESDDENKQYVDVNNNANVTTINNNRTPLLAIQHKSIPINSATEHLNKNTSDDDTSSQSSSSSHSDDEEHGGLYINARFSRRSDSGVHSPITDNSSVASSTTSRAHVRPIIKLLPDTTLNYGSDEESDNGEFNGYGNAVSHNVNTSRGYDYIYDYNSVYTGDTSSFLPVDSCDIVDVPEGMDLQTAIADDNASNYEFNNAVESKEKHVPQLHKASANNTTRQHGSHMLLYDDDNYSSSSDSEQQFIEDSQYNSSDDEEEEDDDDQEVDDNHDEGLSLRRTLSLGKSGSTNSLYDLAQPSLSSATPQQKNPTNFTGGKTDVDKDAQLAVRPYPLKRNSSSGNFIFNSDSEEESSSEEEQRPLPANSQLVNRSVLKGSVTPANISSQKKKALPKQPKASDSSQSFRIVNNTPSPAEVGASDVAIEGYFSPRNESIKSVVSGGNMMDHQDHSEMDTLAKGFENCHINNASKLKDKKVDSVQTTRKEASLTDSSNESLHKVVQNARGMASKYLHSWKKSDVKPQENGNDSS
chain 2: MSSNNNTNTAPANANSSHHHHHHHHHHHHHGHGGSNSTLNNPKSSLADGAHIGNYQIVKTLGEGSFGKVKLAYHTTTGQKVALKIINKKVLAKSDMQGRIEREISYLRLLRHPHIIKLYDVIKSKDEIIMVIEYAGNELFDYIVQRDKMSEQEARRFFQQIISAVEYCHRHKIVHRDLKPENLLLDEHLNVKIADFGLSNIMTDGNFLKTSCGSPNYAAPEVISGKLYAGPEVDVWSCGVILYVMLCRRLPFDDESIPVLFKNISNGVYTLPKFLSPGAAGLIKRMLIVNPLNRISIHEIMQDDWFKVDLPEYLLPPDLKPHPEEENENNDSKKDGSSPDNDEIDDNLVNILSSTMGYEKDEIYESLESSEDTPAFNEIRDAYMLIKENKSLIKDMKANKSVSDELDTFLSQSPPTFQQQSKSHQKSQVDHETAKQHARRMASAITQQRTYHQSPFMDQYKEEDSTVSILPTSLPQIHRANMLAQGSPAASKISPLVTKKSKTRWHFGIRSRSYPLDVMGEIYIALKNLGAEWAKPSEEDLWTIKLRWKYDIGNKTNTNEKIPDLMKMVIQLFQIETNNYLVDFKFDGWESSYGDDTTVSNISEDEMSTFSAYPFLHLTTKLIMELAVNSQSN
B2: Reg1-FLAG (wild type) [S. cerevisiae] / Glc7-GFP [S. cerevisiae] (parent complex)
chain 1: B1 chain 1
chain 2: MDSQPVDVDNIIDRLLEVRGSKPGQQVDLEENEIRYLCSKARSIFIKQPILLELEAPIKICGDIHGQYYDLLRLFEYGGFPPESNYLFLGDYVDRGKQSLETICLLLAYKIKYPENFFILRGNHECASINRIYGFYDECKRRYNIKLWKTFTDCFNCLPIAAIIDEKIFCMHGGLSPDLNSMEQIRRVMRPTDIPDVGLLCDLLWSDPDKDIVGWSENDRGVSFTFGPDVVNRFLQKQDMELICRAHQVVEDGYEFFSKRQLVTLFSAPNYCGEFDNAGAMMSVDESLLCSFQILKPAQKSLPRQAGGRKKK

The variants in one assay derive from B1. The assay can be described thus: co-immunoprecipitation (anti-FLAG IP, immunoblot quantification); n = 3; reg1Δ Snf1-GFP Glc7-GFP cells; parent: 1; read off a plot. On the technique in general: A western blot detects proteins with antibodies after separation by electrophoresis.
As for chain 1 A54T, the ratio to parent was around 0.84. Regarding chain 1 P231S, the ratio to parent was around 1.1. With chain 1 N624S, the ratio to parent was around 0.74.

For the variant chain 1 P278Q, the ratio to parent was around 0.95. On the same count and under the same terms, as for chain 1 W165G, the figure is around 0.8.

The variants in the next assay derive from B2. Described as above.
With chain 1 N624S, the ratio to parent is around 1.5. With chain 1 A54T, the ratio to parent was around 0.93. chain 1 W165G: the ratio to parent was around 0.66. Take chain 1 P231S: the ratio to parent is around 0.81. Turning to chain 1 P278Q, the ratio to parent is around 0.8.
